Key:
[1] = target: T1, MUC1 100mer vaccine peptide (Homo sapiens, UniProt P15941)
Target sequence in this assay (P15941 136-235): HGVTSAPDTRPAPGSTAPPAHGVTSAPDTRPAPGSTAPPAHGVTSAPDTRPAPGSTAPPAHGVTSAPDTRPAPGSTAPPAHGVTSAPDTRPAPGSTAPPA

[2] = target: T1, MUC1 100mer vaccine peptide; experiment: SPR; Biacore T200; Fab captured at low density (RU < 50) on a CM5 chip coated with anti-human Fab capture kit; serially diluted 100mer peptide as analyte; 'Steady State' in Table 1 in place of rate constants; conditions: both partners purified
MUC1 VNTR 25mer peptide = target: T2, MUC1 VNTR 25mer peptide (Homo sapiens); experiment: SPR; Biacore T200; whole IgG captured on a CM5 chip coated with anti-human IgG capture antibody; serially diluted 25mer peptide as analyte; 1:1 model; conditions: both partners purified
T2 construct: MUC1 VNTR, human; one repeat plus 5 amino acids from the next repeat; also called 25mer MUC1 peptide
T2 sequence (peptide, as listed by the source): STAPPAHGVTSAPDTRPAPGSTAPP

[3] = target: T1, MUC1 100mer vaccine peptide; experiment: SPR; Biacore T200; Fab captured at low density (RU < 50) on a CM5 chip coated with anti-human Fab capture kit; serially diluted 100mer peptide as analyte; kinetic analysis, 1:1 model; conditions: both partners purified

B1: H16K6 (antibody, V domains shown)
VH: QVQLVESGGGLVKPGGSLRLSCAASGFTFSDYYMSWIRQAPGKGLEWVSYISSSGTTKYYADSVKGRFTISRDNAKNSLYLQMNSLRAEDTAVYYCVRENLGYCSGGSCFYYYYMDVWGKGTTVTVSS
VL: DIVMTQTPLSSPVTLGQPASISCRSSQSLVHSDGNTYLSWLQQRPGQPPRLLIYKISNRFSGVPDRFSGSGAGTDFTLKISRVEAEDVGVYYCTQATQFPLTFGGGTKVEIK
Q: Does B1 bind [1]?
A: binds

B2: H4K10 Fab (Fab, V domains shown)
VH: QLQLQESGPGLVKPSETLSLTCTVSGGSISSSRYYWGWIRQPPGKGLEWIGSIYYSGSTYYNPSLKSRVTISVDTSNNQFSLKLTSVTAADTAVYYCARLPESGGYSGWFDPWGQGTLVTVSS
VL: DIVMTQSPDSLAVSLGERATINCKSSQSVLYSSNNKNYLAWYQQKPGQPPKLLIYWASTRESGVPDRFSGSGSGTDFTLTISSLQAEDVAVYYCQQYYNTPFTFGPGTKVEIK
Q: With B2 as the binder, how does the Kd [2] read?
A: 5310 nM

B3: H4K11 Fab (Fab, V domains shown)
VH: QLQLQESGPGLVKPSETLSLTCTVSGGSISSSRYYWGWIRQPPGKGLEWIGSIYYSGSTYYNPSLKSRVTISVDTSNNQFSLKLTSVTAADTAVYYCARLPESGGYSGWFDPWGQGTLVTVSS
VL: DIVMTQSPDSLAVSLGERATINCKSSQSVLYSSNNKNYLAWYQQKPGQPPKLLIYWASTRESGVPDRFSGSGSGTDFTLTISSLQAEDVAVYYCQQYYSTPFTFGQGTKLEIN
Q: How did the Kd [2] turn out when B3 was run?
A: 15700 nM

B4: H14K6 whole IgG (antibody, V domains shown)
VH: QVQLVESGGGLVKPGGSLRLSCAASGFTFSDYYMSWIRQAPGKGLEWVSYISSSGSTIYYADSVKGRFTISRDNAKNSLYLQMNSLRAEDTAVYYCARERIGYCSGGSCYYYYYMDVWGKGTTVTVSS
VL: not shown
Q: Which results are given for B4?
A: Kd (MUC1 VNTR 25mer peptide): 27.2 nM; koff (MUC1 VNTR 25mer peptide): 0.00123 s⁻¹; kon (MUC1 VNTR 25mer peptide): 45300 M⁻¹ s⁻¹

B5: H14K6 Fab (Fab, V domains shown)
VH: QVQLVESGGGLVKPGGSLRLSCAASGFTFSDYYMSWIRQAPGKGLEWVSYISSSGSTIYYADSVKGRFTISRDNAKNSLYLQMNSLRAEDTAVYYCARERIGYCSGGSCYYYYYMDVWGKGTTVTVSS
VL: not shown
Q: Which Kd [3] does the source give for B5 here?
A: 0.13 nM

Q: And the koff [3]?
A: 0.000346 s⁻¹

Q: And the kon [3]?
A: 2.67e+06 M⁻¹ s⁻¹

B6: H19K15 whole IgG (antibody, V domains shown)
VH: QVQLVESGGGLVKPGGSLRLSCAASGFIFSDYYMSWIRQAPGKGLEWVSYISSSGTTKYYADSVKGRFTISRDNAKNSLYLQMNSLRAEDTAVYYCVREDIGYCSGGSCFYYYYMDVWGKGTTVTVSS
VL: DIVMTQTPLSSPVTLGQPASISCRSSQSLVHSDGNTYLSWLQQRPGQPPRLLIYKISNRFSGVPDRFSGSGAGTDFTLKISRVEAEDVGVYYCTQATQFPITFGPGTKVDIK
Q: How did the kon (MUC1 VNTR 25mer peptide) turn out when B6 was run?
A: 8600 M⁻¹ s⁻¹

B7: H19K15 Fab (Fab, V domains shown)
VH: QVQLVESGGGLVKPGGSLRLSCAASGFIFSDYYMSWIRQAPGKGLEWVSYISSSGTTKYYADSVKGRFTISRDNAKNSLYLQMNSLRAEDTAVYYCVREDIGYCSGGSCFYYYYMDVWGKGTTVTVSS
VL: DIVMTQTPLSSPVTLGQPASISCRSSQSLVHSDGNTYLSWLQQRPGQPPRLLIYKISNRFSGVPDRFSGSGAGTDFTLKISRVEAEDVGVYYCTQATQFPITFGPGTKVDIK
Q: B7 was tested. Which Kd [3] did it give?
A: 0.555 nM

Q: What about the koff [3] of the same binder?
A: 0.000453 s⁻¹

Q: And the kon [3]?
A: 817000 M⁻¹ s⁻¹

Reference: article PMC4992835, “Antibodies elicited by the first non-viral prophylactic cancer vaccine show tumor-specificity and immunotherapeutic potential” (Scientific Reports, 2016)
